Results as given in article PMC3912326.
Like-named read-outs stand apart in the source and are kept apart here.

Assays:
Experiment in all cases: fluorescence anisotropy
[1] = target: human transferrin receptor (hTfR) (Homo sapiens, UniProt P02786 89-760)
[2] = target: T1, mouse transferrin receptor (mTfR) (Mus musculus, UniProt Q62351 89-763)
transferrin (Tf) = transferrin (Tf) (UniProt P02787 20-698)
[3] = target: T1, mouse transferrin receptor (mTfR); remark: listed apart in the source
[4] = target: T1, mouse transferrin receptor (mTfR); remark: listed apart in the source

T1 sequence (Q62351 89-763): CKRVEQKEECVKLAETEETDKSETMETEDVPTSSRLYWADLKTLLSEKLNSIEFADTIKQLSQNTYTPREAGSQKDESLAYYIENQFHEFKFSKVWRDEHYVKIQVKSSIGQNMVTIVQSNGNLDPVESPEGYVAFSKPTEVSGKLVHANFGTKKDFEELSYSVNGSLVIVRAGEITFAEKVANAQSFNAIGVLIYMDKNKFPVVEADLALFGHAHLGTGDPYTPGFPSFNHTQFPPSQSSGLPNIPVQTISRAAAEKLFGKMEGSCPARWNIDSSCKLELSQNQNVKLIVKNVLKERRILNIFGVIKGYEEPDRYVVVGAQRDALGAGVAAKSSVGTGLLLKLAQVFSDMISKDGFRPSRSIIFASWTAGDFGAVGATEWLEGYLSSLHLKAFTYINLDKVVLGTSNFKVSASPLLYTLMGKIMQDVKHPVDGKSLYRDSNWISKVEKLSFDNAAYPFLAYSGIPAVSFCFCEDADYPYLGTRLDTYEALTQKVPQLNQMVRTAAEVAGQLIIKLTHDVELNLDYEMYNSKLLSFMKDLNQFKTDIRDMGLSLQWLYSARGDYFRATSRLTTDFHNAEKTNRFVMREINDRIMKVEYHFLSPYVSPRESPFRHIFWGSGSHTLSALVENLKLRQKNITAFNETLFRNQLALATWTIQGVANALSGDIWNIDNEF
Sequence of human transferrin receptor (hTfR) (P02786 89-760): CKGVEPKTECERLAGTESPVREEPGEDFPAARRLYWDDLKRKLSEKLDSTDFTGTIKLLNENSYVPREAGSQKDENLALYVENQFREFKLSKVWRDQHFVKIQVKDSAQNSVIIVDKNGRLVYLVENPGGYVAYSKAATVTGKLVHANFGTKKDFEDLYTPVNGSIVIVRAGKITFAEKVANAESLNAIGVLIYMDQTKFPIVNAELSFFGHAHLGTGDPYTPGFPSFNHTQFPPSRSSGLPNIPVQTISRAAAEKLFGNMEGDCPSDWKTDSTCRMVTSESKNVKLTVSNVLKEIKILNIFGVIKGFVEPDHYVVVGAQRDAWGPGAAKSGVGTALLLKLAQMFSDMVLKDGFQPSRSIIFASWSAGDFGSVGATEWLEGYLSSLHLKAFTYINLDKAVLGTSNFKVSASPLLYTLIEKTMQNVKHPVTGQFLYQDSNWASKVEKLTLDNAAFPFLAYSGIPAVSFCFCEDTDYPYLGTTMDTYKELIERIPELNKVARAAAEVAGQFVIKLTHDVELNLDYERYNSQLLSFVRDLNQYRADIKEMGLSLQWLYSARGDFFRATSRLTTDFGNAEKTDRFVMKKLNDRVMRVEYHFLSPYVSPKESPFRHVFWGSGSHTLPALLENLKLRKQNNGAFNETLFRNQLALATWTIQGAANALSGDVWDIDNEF
Sequence of transferrin (Tf) (P02787 20-698): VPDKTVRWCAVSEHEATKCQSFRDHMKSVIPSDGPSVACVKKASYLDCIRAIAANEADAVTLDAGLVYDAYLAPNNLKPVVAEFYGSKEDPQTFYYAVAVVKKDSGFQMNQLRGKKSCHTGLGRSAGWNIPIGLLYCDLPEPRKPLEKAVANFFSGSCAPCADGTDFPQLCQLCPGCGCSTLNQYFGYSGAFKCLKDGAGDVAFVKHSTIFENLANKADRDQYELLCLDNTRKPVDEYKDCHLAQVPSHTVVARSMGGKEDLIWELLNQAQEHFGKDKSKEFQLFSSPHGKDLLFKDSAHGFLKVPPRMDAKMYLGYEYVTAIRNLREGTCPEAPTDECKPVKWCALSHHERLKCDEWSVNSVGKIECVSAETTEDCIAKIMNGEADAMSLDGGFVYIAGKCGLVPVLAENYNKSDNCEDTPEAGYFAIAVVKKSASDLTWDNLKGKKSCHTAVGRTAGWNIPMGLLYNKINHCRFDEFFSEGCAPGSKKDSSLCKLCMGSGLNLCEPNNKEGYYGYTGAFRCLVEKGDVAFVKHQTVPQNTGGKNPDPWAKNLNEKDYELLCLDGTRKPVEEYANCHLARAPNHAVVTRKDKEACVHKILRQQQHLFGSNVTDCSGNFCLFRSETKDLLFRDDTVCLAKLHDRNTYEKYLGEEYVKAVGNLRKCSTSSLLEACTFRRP

B1: GS24 (equilibrium mixture A-1F:A-2F 20:80) (structured_DNA)
DNA: GCGTGTGCACACGGTCACTTAGTATCGCTACGTTCTTTGGTTCCGTTCGG
modifications: 5' amino C6 linker
In the case of B1, the Kd [1] is reported as 1000 ± 250 nM, the Kd [2] is reported as 250 ± 40 nM and the binding result (transferrin (Tf)) is reported as “no binding”.

B2: GS24 fold A-2F (purified active fold) (structured_DNA)
DNA: B1 DNA
modifications: 5' amino C6 linker
In the case of B2, the Kd [3] is reported as 130 ± 30 nM.

B3: GS24min (structured_DNA)
DNA: CACTTAGTATCGCTACGTTCTTTGGTTCCGTTCGG
modifications: 5' amino C6 linker
In the case of B3, the Kd [4] is reported as 1200 ± 390 nM.
